Data published in US20150191542A1 (INNATE PHARMA S A, published 2015).

Columns and labels:
[1] = target: T1, MICA*001 extracellular domain α3 recombinant protein (human, UniProt Q29983 205-297); experiment: ELISA, 3 µg/ml recombinant protein coated
T1 construct: also called MICA extracellular domain α3 recombinant protein; α3 domain of MICA
T1 sequence: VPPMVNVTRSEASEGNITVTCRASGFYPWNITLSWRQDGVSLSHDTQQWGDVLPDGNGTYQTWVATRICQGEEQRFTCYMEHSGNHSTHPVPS
Procedure: 3 μg/ml of the indicated MICA recombinant proteins were coated overnight in 96-well plates in PBS 1× at 4° C. All subsequent steps were performed at room temperature. After washes with PBS 1×/Tween 0.05%, plates were saturated for an additional 2 hours in PBS 1×/BSA 1%. Two additional washes were performed prior adding the tested anti-MICA mAb in PBS 1×/BSA 1% for 2 hours. Antibodies were washed and a horseradish peroxidase conjugated goat polyclonal anti-mouse IgG (GAM-HRP) in PBS 1×/BSA 1% was added for 1 hour. Final washing steps were performed and TMB substrate was added to reveal the ELISA (5 to 20 min in the dark) and 1M HCl was added to stop the enzymatic reaction. O.D. was measured at 450 nm.
9C10 binds to MICA extracellular domain recombinant-protein but not MICA extracellular domain α3 recombinant protein. Antibody 16A8, however, bound to both MICA extracellular domain recombinant protein […] MICA extracellular domain α3 recombinant protein. Therefore, it can be concluded from this ELISA experiment that the binding site on MICA of 9C10 antibodies includes the α1 and/or α2 domains while antibody 16A8 binds to MICA within the α3 domain. […] BAMO1 is a commercially available anti-MICA specific for α1α2 domain and BAMO3 is a commercially available anti-MICA specific for α3 domain.

[2] = target: T2, MICA*008 expressed on C1R transfectant cells (human, UniProt Q29983 24-297, Glycosylated on cells; the letters do not carry this.); experiment: flow cytometry, MFI against antibody concentration on C1R-MICA*08 cells
T2 construct: also called C1R-MICA*008; C1R-MICA*08
T2 chain: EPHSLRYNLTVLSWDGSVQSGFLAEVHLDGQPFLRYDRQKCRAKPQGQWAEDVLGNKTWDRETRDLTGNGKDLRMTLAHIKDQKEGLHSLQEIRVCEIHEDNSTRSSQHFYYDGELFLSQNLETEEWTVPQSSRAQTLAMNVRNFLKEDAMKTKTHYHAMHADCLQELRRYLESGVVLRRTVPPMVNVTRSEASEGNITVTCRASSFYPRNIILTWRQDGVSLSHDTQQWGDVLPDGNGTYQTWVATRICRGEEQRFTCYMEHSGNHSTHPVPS
Procedure: The binding of antibodies obtained from the first and second immunization series (including 9C10, 20C6 and 16A8) were tested for binding to MICA-expressing CR1 transfectant cells C1R-MICA*001, C1R-MICA*004, C1R-MICA*007 and C1R-MICA*008 (Pr. A. Steinle, Eberhard-Karls University Tuebingen, Germany) described in Salih et al. (2003) Blood 102(4): […]. Binding was analyzed by flow cytometry.
Cells were harvested and stained in PBS 1×/BSA 0,2%/EDTA 2 mM buffer during 30 minutes at 4° C. using a dose-range of the anti-MICA mAbs. After two washes in staining buffer, cells were stained for 30 min at 4° C. with goat anti-mouse (H+L)-PE polyclonal antibodies (1/200). After two washes, stainings were acquired on a BD FACS Canto II and analyzed using the FlowJo software.

[3] = target: T3, recombinant human MICA extracellular domain recombinant-Fc protein (MICA*019 allele) (human, UniProt Q29983 24-297); experiment: SPR Biacore T100, biotinylated antibody captured on CAP chip, MICA*019-Fc injected; bivalent mean KD at pH 7.4; on MICA*019-Fc; bivalent, pH 7.4
T3 construct: Bought from R&D Systems; also called MICA*019-Fc; MICA-Fc; not shown: Fc part of the bought fusion protein (R&D Systems)
T3 chain: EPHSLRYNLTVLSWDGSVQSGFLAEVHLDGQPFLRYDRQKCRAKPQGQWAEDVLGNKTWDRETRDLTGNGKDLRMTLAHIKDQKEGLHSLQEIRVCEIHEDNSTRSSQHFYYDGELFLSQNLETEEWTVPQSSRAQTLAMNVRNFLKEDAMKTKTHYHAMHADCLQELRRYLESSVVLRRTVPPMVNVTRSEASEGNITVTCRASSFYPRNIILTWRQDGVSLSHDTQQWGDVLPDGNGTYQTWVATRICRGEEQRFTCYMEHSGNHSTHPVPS
Procedure: The binding of 9C10, 20C6 and 16A8 to either recombinant human MICA extracellular domain recombinant protein monomers or dimers (MICA*019 allele-Fc protein or MICA*001-His protein) as well as other NKG2D ligands MICB and ULBP1-2 was analyzed by Surface Plasmon Resonance (SPR) using a Biacore T100 apparatus to obtain monovalent and bivalent affinity, respectively. Biotinylated anti-MICA antibodies were injected at a constant rate of 10 μl/min over the Sensor Chip CAP flow-cells comprising Biotin CAPture Reagent. MICA-Fc or MICA-His protein, MICB-Fc, ULBP1-Fc or ULBP2-Fc protein is then injected successively (range of concentrations between 0.01-100 nM), with regeneration between injections, and in increasing order over two flowcells simultaneously. Curves are fitted using Biacore T100 Evaluation software.
Antibody 16A8 bound MICA and MICB but not ULBP1 or ULBP2. Results are shown in FIGS. 1A, 1B, 1C and 1D for MICA, MICB, ULBP1 and ULPB2 respectively.

- binding result [1]: no binding
- EC50 (read off the curve) [2]: ~0.2 µg/mL
- Kd [3]: 0.62 pM
B1: antibody 9C10 (antibody, V domains shown)
VH: QVQLQQPGAELVRPGTSVNLSCKASGYSFTRYWMNWVKQRPGQGLEWIGMIHPSDSETRLNQKFKDKATLTVDKSSSTAYMQLSSPTSEDSAVYYCGYGNFFYVMDYWGQGTSVTVSS
VL: DILLTQSPAILSVSPGERVSFSCRASQSIGTSIHWYQQRTNGSPRLLIKFASESISGIPSRFSGSGSGTDFTLNINSVESEDIADYYCQQSNFWPFTFGSGTKLEVK
modifications: Biotinylated when captured in the SPR assays (9C10-Biot); the sites are not given.
notes: Murine hybridoma antibody of IgG2b isotype as tested; also called 9C10-Biot
